Numbering of substitutions follows the chain as printed.
B1: Table S3 C row 141 (dsDNA)
DNA 1: CTCCAACCCTTGTCCCTTCCGCCTGCCACTGCAGGT
DNA 2: ACCTGCAGTGGCAGGCGGAAGGGACAAGGGTTGGAG
B2: Table S3 C row 73 (dsDNA)
DNA 1: CCCAGATCACATGACAGGAAGGCAAAGTCCTCAGGT
DNA 2: ACCTGAGGACTTTGCCTTCCTGTCATGTGATCTGGG
B3: Table S3 C row 125 (dsDNA)
DNA 1: TTCCATTCGATGATGCTTCCGTATGAATCCATTCAC
DNA 2: GTGAATGGATTCATACGGAAGCATCATCGAATGGAA
B4: Table S3 C row 177 (dsDNA)
DNA 1: TCTCCTACTCCTGCGCGGATGCTCTAGGCCGCTTGC
DNA 2: GCAAGCGGCCTAGAGCATCCGCGCAGGAGTAGGAGA
B5: Table S3 C row 37 (dsDNA)
DNA 1: ACCCTCTGTTTTGAGCTTCCGGTAGAGGCTGGTAGG
DNA 2: CCTACCAGCCTCTACCGGAAGCTCAAAACAGAGGGT
B6: Table S3 C row 158 (dsDNA)
DNA 1: ACAAAAAAACCCTACCTTCCGCCATGTCTGGCCCGG
DNA 2: CCGGGCCAGACATGGCGGAAGGTAGGGTTTTTTTGT
B7: Table S3 C row 182 (dsDNA)
DNA 1: TCTGCAGAGGGTTCCCGGATACACCTTGCGAAGAAT
DNA 2: ATTCTTCGCAAGGTGTATCCGGGAACCCTCTGCAGA
B8: Table S2 A row 1206 (dsDNA)
DNA 1: TTGATTGGAGCAGGATGTGGTCAGAACAGTATGCAG
DNA 2: CTGCATACTGTTCTGACCACATCCTGCTCCAATCAA
B9: Table S2 A row 1136 (dsDNA)
DNA 1: CCCGCTCACGCCGGAAGTGGTTTGCGTTTTCAAGAT
DNA 2: ATCTTGAAAACGCAAACCACTTCCGGCGTGAGCGGG
B10: Table S2 A row 644 (dsDNA)
DNA 1: GCCGGCGGCCGGAAGTCTATCCCGCAGAAGCGCAGC
DNA 2: GCTGCGCTTCTGCGGGATAGACTTCCGGCCGCCGGC
B11: Table S2 A row 327 (dsDNA)
DNA 1: AATTGAGACAGGAAATGTTGGTTTGTGGTCAGGCAC
DNA 2: GTGCCTGACCACAAACCAACATTTCCTGTCTCAATT
B12: Table S2 A row 1217 (dsDNA)
DNA 1: TGGGGGATGGCAGCAGGATGTGGTTATCTCAGAAAG
DNA 2: CTTTCTGAGATAACCACATCCTGCTGCCATCCCCCA
B13: Table S2 A row 443 (dsDNA)
DNA 1: CCATGCACAACAGGATGTGGTTAGACAGTCAAAATT
DNA 2: AATTTTGACTGTCTAACCACATCCTGTTGTGCATGG
B14: Table S2 A row 466 (dsDNA)
DNA 1: GTGCTAGGACACAGGAAGCGATACCACAAAGAACAT
DNA 2: ATGTTCTTTGTGGTATCGCTTCCTGTGTCCTAGCAC
B15: Table S2 A row 1401 (dsDNA)
DNA 1: GCATTTACGGGCAGGAAATGAAACCACAGAGTACAA
DNA 2: TTGTACTCTGTGGTTTCATTTCCTGCCCGTAAATGC
B16: Table S2 A row 1371 (dsDNA)
DNA 1: GAACCTGGGAGGCGGAAGTTGCGGTTAGCCGAGATC
DNA 2: GATCTCGGCTAACCGCAACTTCCGCCTCCCAGGTTC
B17: Table S2 A row 167 (dsDNA)
DNA 1: GACAATGAGCGCACAGGATGTGGTTTGGCGGCAGGG
DNA 2: CCCTGCCGCCAAACCACATCCTGTGCGCTCATTGTC
B18: Table S2 A row 987 (dsDNA)
DNA 1: TGGGCAGGAAGTGGTATCTGATTGTGGTTTTGATTT
DNA 2: AAATCAAAACCACAATCAGATACCACTTCCTGCCCA
B19: Table S2 A row 166 (dsDNA)
DNA 1: GATATGGCAGGAAGTAGGGCCTGGAAACCGCACGGC
DNA 2: GCCGTGCGGTTTCCAGGCCCTACTTCCTGCCATATC
B20: Table S2 A row 1146 (dsDNA)
DNA 1: GACACAAGCCTCACAGGATGTGGTCAAAGAAGGTTG
DNA 2: CAACCTTCTTTGACCACATCCTGTGAGGCTTGTGTC
B21: Table S2 A row 270 (dsDNA)
DNA 1: CTCATTGACAGGAAGTCTAACCACAGGCTTAGGCCC
DNA 2: GGGCCTAAGCCTGTGGTTAGACTTCCTGTCAATGAG
B22: Table S2 A row 280 (dsDNA)
DNA 1: CCTGCAGCAACAGGATGTGGTTTGAAAGGATGAAAG
DNA 2: CTTTCATCCTTTCAAACCACATCCTGTTGCTGCAGG
B23: Table S2 A row 964 (dsDNA)
DNA 1: AATCTGAAACAGGAAATAAGTCTGTGGTTGTGTGTT
DNA 2: AACACACAACCACAGACTTATTTCCTGTTTCAGATT
B24: Table S2 A row 1184 (dsDNA)
DNA 1: GAAGCTCCCCAAACAGGATGTGGTTAGGGAGAGGGG
DNA 2: CCCCTCTCCCTAACCACATCCTGTTTGGGGAGCTTC
B25: Table S2 A row 1759 (dsDNA)
DNA 1: CCTGTTGATAAAACAGGATGTGGTAAAGAAGCTGGC
DNA 2: GCCAGCTTCTTTACCACATCCTGTTTTATCAACAGG
B26: Table S2 A row 1460 (dsDNA)
DNA 1: TAGCCACTAACCGGAAACGTTAAACCACAGCTCCGT
DNA 2: ACGGAGCTGTGGTTTAACGTTTCCGGTTAGTGGCTA
B27: Table S2 A row 706 (dsDNA)
DNA 1: B26 DNA 1 with T8G
DNA 2: B26 DNA 2 with A29C
B28: Table S2 A row 92 (dsDNA)
DNA 1: GTCCCCGTAACAGGATGTGGTGAGCTGTTATACCAC
DNA 2: GTGGTATAACAGCTCACCACATCCTGTTACGGGGAC
B29: Table S2 A row 978 (dsDNA)
DNA 1: ACTGAACAAACCGGATGTGGTTGCCACCTGCAATCT
DNA 2: AGATTGCAGGTGGCAACCACATCCGGTTTGTTCAGT
B30: Table S2 A row 1295 (dsDNA)
DNA 1: GCTCTGGGTCACACAGGATGTGGTTTTTGAAGTTTG
DNA 2: CAAACTTCAAAAACCACATCCTGTGTGACCCAGAGC
B31: Table S2 A row 1758 (dsDNA)
DNA 1: GCTGATAGAACAGGATGTGGTAAAGAAGCAGGCCAA
DNA 2: TTGGCCTGCTTCTTTACCACATCCTGTTCTATCAGC
B32: Table S2 A row 393 (dsDNA)
DNA 1: CTGACGCATTTCCGGCCTTTGCGGTTGATCGGTCAT
DNA 2: ATGACCGATCAACCGCAAAGGCCGGAAATGCGTCAG

Biological target: RUNX1 (Homo sapiens, UniProt Q01196)
Sequence (Q01196 whole entry): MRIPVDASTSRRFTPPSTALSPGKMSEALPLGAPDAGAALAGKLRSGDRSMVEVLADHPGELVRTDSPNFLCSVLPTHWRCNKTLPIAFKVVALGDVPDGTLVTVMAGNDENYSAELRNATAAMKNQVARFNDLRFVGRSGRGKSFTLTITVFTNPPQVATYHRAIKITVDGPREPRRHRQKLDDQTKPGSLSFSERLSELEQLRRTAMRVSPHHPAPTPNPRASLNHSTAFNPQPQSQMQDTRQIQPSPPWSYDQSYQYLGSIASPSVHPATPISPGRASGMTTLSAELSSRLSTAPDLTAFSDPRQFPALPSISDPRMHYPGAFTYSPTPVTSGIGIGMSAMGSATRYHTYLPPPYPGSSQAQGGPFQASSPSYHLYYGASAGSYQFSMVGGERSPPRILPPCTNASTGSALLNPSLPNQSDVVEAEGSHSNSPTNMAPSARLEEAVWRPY
Test: gcPBM; 2 nM RUNX1
Conditions: tags: N-terminal GST (pDEST15), kept (PMC6008103); label: surface-attached array probe

B1 was tested. Which binding signal did it give?
The binding signal was 850 PBM fluorescence, median of replicate spots.

With B2 as the binder, how does the binding signal read?
The binding signal was 850 PBM fluorescence, median of replicate spots.

With B3 as the binder, how does the binding signal read?
The binding signal was 844 PBM fluorescence, median of replicate spots.

How did the binding signal turn out when B4 was run?
Its binding signal is 846 PBM fluorescence, median of replicate spots.

With B5 as the binder, how does the binding signal read?
The binding signal was 852 PBM fluorescence, median of replicate spots.

For B6, which binding signal is on record?
Its binding signal is 847 PBM fluorescence, median of replicate spots.

How did the binding signal turn out when B7 was run?
The binding signal was 844 PBM fluorescence, median of replicate spots.

Biological target: ETS1:RUNX1 (Homo sapiens, UniProt P14921;Q01196 full;full)
Sequence (P14921 whole entry, chain 1 of 2): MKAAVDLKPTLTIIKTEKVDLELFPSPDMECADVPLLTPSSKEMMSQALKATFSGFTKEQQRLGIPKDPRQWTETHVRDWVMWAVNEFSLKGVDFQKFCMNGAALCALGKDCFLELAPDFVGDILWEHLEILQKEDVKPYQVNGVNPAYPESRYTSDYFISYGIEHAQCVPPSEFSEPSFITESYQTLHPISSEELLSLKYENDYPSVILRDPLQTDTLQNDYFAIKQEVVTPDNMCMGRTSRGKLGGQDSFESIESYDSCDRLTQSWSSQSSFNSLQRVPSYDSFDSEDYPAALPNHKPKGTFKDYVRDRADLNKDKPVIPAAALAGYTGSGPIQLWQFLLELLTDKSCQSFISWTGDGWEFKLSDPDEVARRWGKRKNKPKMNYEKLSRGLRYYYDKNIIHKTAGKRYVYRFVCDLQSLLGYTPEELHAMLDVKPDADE
Sequence (Q01196 whole entry, chain 2 of 2): as the sequence (Q01196 whole entry) above
Test: gcPBM; 1 nM ETS1 + 25 nM RUNX1, anti-ETS1 signal, normalised
Conditions: tags: N-terminal GST (pDEST15), kept (PMC6008103); copies: 1;1; label: surface-attached array probe

For B8, which binding signal is on record?
Its binding signal is 23200 PBM fluorescence, median of replicate spots.

With B9 as the binder, how does the binding signal read?
The binding signal was 22300 PBM fluorescence, median of replicate spots.

B10 was tested. Which binding signal did it give?
The binding signal was 19100 PBM fluorescence, median of replicate spots.

For B11, which binding signal is on record?
Its binding signal is 28000 PBM fluorescence, median of replicate spots.

B12 was tested. Which binding signal did it give?
Its binding signal is 29000 PBM fluorescence, median of replicate spots.

B13 was tested. Which binding signal did it give?
The binding signal was 29600 PBM fluorescence, median of replicate spots.

B14 was tested. Which binding signal did it give?
Its binding signal is 19800 PBM fluorescence, median of replicate spots.

How did the binding signal turn out when B15 was run?
Its binding signal is 36500 PBM fluorescence, median of replicate spots.

How did the binding signal turn out when B16 was run?
Its binding signal is 64700 PBM fluorescence, median of replicate spots.

Which binding signal does the source give for B17 here?
The binding signal was 33400 PBM fluorescence, median of replicate spots.

B18 was tested. Which binding signal did it give?
The binding signal was 25700 PBM fluorescence, median of replicate spots.

B19 was tested. Which binding signal did it give?
The binding signal was 25500 PBM fluorescence, median of replicate spots.

B20 was tested. Which binding signal did it give?
The binding signal was 20600 PBM fluorescence, median of replicate spots.

With B21 as the binder, how does the binding signal read?
Its binding signal is 29200 PBM fluorescence, median of replicate spots.

B22 was tested. Which binding signal did it give?
Its binding signal is 32100 PBM fluorescence, median of replicate spots.

B23 was tested. Which binding signal did it give?
The binding signal was 23600 PBM fluorescence, median of replicate spots.

For B24, which binding signal is on record?
Its binding signal is 58300 PBM fluorescence, median of replicate spots.

Which binding signal does the source give for B25 here?
Its binding signal is 43300 PBM fluorescence, median of replicate spots.

How did the binding signal turn out when B26 was run?
The binding signal was 56100 PBM fluorescence, median of replicate spots.

Which binding signal does the source give for B27 here?
The binding signal was 46400 PBM fluorescence, median of replicate spots.

B28 was tested. Which binding signal did it give?
Its binding signal is 19700 PBM fluorescence, median of replicate spots.

B29 was tested. Which binding signal did it give?
The binding signal was 38500 PBM fluorescence, median of replicate spots.

How did the binding signal turn out when B30 was run?
The binding signal was 49000 PBM fluorescence, median of replicate spots.

B31 was tested. Which binding signal did it give?
Its binding signal is 24600 PBM fluorescence, median of replicate spots.

With B32 as the binder, how does the binding signal read?
The binding signal was 30800 PBM fluorescence, median of replicate spots.
